In the nanobody polyreactivity screen of Harvey et al. (2022):

Assay: yeast display, Sf9 membrane polyspecificity reagent, FACS + sequencing; frameworks hold sequencing errors
Outline: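 Using colony PCR, genes from sorted yeast display clones were amplified, then sequenced on MiSeq at 2 × 250 and filtered by CDR length. The clones had been stained with 10% biotinylated, detergent-solubilized Sf9 membrane reagent for 1 hour at 4 °C and sorted by FACS into low and high (top ~1%) gates on anti-HA and streptavidin fluorescence. Polyreactivity labels come from the gate of origin.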

In the case of “QVQLVVSGGGLVQAGGRLRLSCAASGSSFVGYAMGWYRQAPGKERELVAAISRRGGSTYYADSVKGRFTISRDNAKNTVYLQMNRLKPEDTSVYYFAARFKVSYYNLYSYGYWRQGTQVTVSS”, the “polyreactivity (PSR sort gate)” value was “high polyreactivity”.

In the case of “QVQLVVSGGGLVQAGGSLRLSCAASGITFYEYAMGWYRQSPGKESELVATITSGGNTNYADSVKGRFTISRDNAKNTGYLLMNSLIPEDTSVYYCAASVGYYSRYGYGYWGQGTQVTVSS”, the “polyreactivity (PSR sort gate)” value was “low polyreactivity”.

For “QVQLVVSGGGLVQAGGSLRLSCAASGLTFWKYTLGWYRQAPGKEREWVAAMSISGTNTYYADSVKGRFTISRDNAKNTVYLQMNSLKPEDTAVYYCAAVRGYPPTNYYYCGQGTQVTVSS”, the “polyreactivity (PSR sort gate)” value was “high polyreactivity”.

For “QVQLVVSGGGLVQAGGSLRLSCAASGRIFVANAMGWYRQAPGKERELVAAISGRGSRTYYADSVKGRFTISRDNAKNTVYLQMNSLKPEDTAVYYCAARYRYDGRYDYWGQGTQVTVSS”, the “polyreactivity (PSR sort gate)” value was “high polyreactivity”.

In the case of “QVQLVVSGGGLVQAGGSLRLSCAASGRIIFWYALGWYRQAPGKERELVAGITSGGSTNYADSVKGRFTISRDNAKNTVYLQMMRLKPEVTAVYYCNTVDSIPIGSGLYYYWGQGTQVTVSS”, the “polyreactivity (PSR sort gate)” value was “low polyreactivity”.

In the case of “QVQLVVSGGGLVQAGGSLRLSCAASGSIFGENAMGWYRQAPGKERELVAAITWSGASTYYADSVKGRFTISRDNAKNTVFLKMNSLKPEDTAVYYCNDDRFVRFSTFDYWGQGTQVTVSS”, the “polyreactivity (PSR sort gate)” value was “high polyreactivity”.

With “QVQLVVSGGGLVQAGGSLRLSCAASGSTFSRNAMGWYRQAPGKERELVASISWSGARTYYADSVKRRFTISRDNAKNTVYLQMNSLKPEDTAVYYCAKFRSYRGPYNFWGQGTQVTVSS” the “polyreactivity (PSR sort gate)” value was “high polyreactivity”.

With “QVQLVVSGGGLVQAGGSLRLSCAASGSTLVIYAMGGYRQAPGKERELVAAIRRTGGSTYYADSVKGRFTISRDNAKTTVDLQKNSLKPEDTAVYYCAKRSYTGYEYWGQGTQETVSS” the “polyreactivity (PSR sort gate)” value was “low polyreactivity”.

For “QVQLVVSGGGLVQAGGSLRLSCAPSGRTFKPYVMGWYRQAPGKERELVAAISSRGGSTYYADSVKGRFTISRDNEKTTVFLQMNSLKPEDTAVYYCNAAYWFSNKNGYWGQGTQVTVSS”, the “polyreactivity (PSR sort gate)” value was “high polyreactivity”.

With “QVQLVVSGGGLVQAGGSLSLSWDASGRTFARYTMGWYRQAPGKERELVASITRGGSPYYADSVKGRFTISRDNAKNYVYLQMNSLKAEDSSVFYCAARFPQHNYWAMDYCGQGTQVTVSS” the “polyreactivity (PSR sort gate)” value was “high polyreactivity”.

With “QVQLVVSRGGLVQAGGSLRLSCAASGSTFYYNAMGWYRQAPGKERELVAAISRSGGRTYYADSVKGRFTISRDNAKNTVYLQMNSLKPEDTAVYYCAAEYFDWWVTYDYWGQGTQVTVSS” the “polyreactivity (PSR sort gate)” value was “high polyreactivity”.

In the case of “QVQLVYSGGGLVQAGGSLRISCAPSGRTYRKYAMGWYIQAPGKERELVAANSRSGGSTYYANSVKGRFTISRDIAKNTFYLQMNSLKPDDTAVYYCAAVPVHTGSLYWGFTTGYDYWGQVTQVTVSS”, the “polyreactivity (PSR sort gate)” value was “low polyreactivity”.

In the case of “QVQLVYSGGGLVQAGGSLRLSCAASGLILWPYTMGWYRQSPWKERELVAAISSSGGSTYYADSVKGRFTISRDNAKNTVYLQMNSLKPEDTAVYYCAAVCWVISGKNGAGSMDYWGLGTQVTVSS”, the “polyreactivity (PSR sort gate)” value was “high polyreactivity”.

With “QVQLVYSGGGLVQAGGSLRLSCAASGSTFQAYDMGWYRQAPGKERELVAAITTGGSTNYADSVKGRFTISRDNAKNTVYLQLNSLKPEDTAVYYCNADFIYVLYYVVLYDYWGQGTQVTVSS” the “polyreactivity (PSR sort gate)” value was “low polyreactivity”.

In the case of “QVQLVYSRRGLVQAGGSLRLSCAASGLIFAWYAIGWYRQATVNVRELVATISWNGDRTYYADSVKGRFTIARDNGKTSVYLQINSLQAEDTAVYYCAAYSVFRSYDYWGQGTQVTVSS”, the “polyreactivity (PSR sort gate)” value was “high polyreactivity”.

For “QVQNVESGGGLVQAGGSLRLICAASGSIFDPYAMGRYRQAPGKEMELVAAIRKRGSSTYYADSVKGRFTISRDNAKYTVYLQMNSLKPEDTAVYYCAATWVSVWYRYDYWGQGTQVTVSA”, the “polyreactivity (PSR sort gate)” value was “high polyreactivity”.

With “QVQPVESGAGLVQAGGSLRLSCAASGSIFWSYAMGLYRQAPGKERELVAAITTSDGSTYYADSVKWRFTISRDNAKNTVYLQMNSLKPEDTAVYYCAADTYYVSYGYYYWGQGTQVTVSS” the “polyreactivity (PSR sort gate)” value was “low polyreactivity”.

With “QVQQQESGGGLVQAGGILRMSCAASGTIFSEANMGSYRQAPGKERELVATIGQGSTTNYADSVKGRFTISRDNAKNTVYLQMNSLKPEETAVYYCAVVNVDPVGFVYWGQGTQVTVSS” the “polyreactivity (PSR sort gate)” value was “low polyreactivity”.

With “QVQQQESGGGLVQAGGSLRLSCAASGSIFDGFNMGWYRQAPGKEREFVAAISYGASTYYADIVKGRFTDSRDNAKYSVYLQMIRLKPEDTAVYYCAVYDELYHVLVYWGRGTQVTVSS” the “polyreactivity (PSR sort gate)” value was “low polyreactivity”.

In the case of “QVQQQESGGGLVQAGGSLRLSCAASGTIFQLTVMGRYRQAPGKERELVASIDYGGNTNYADSVKGRFTISRDNAKNTVYLQMNSLKPEDTAVYYCAASSDSWTTHPYWGQGTQVTVSS”, the “polyreactivity (PSR sort gate)” value was “low polyreactivity”.

For “QVQQQESGGGLVQAGGSLRLSCAASGTIFQLTVMRRYRQAPGKERELVASIDYGGNTNYADSVKGRFTISRDNAKNTVYLQMNSLKPEDTAVYYCAASSDSWTTHPYWGQGTQVTVSS”, the “polyreactivity (PSR sort gate)” value was “low polyreactivity”.

With “QVQQQESGGGLVQAGGSLRLSCAASGTILYSLGMGWYRQAPGKRREFVASITWGTTTNYAESVKGRFTISRDNAKNTVYPQMNSLKPEDTAVYYCNKSSTGWTSTYDYWGQGTQVTVSS” the “polyreactivity (PSR sort gate)” value was “low polyreactivity”.

For “QVQQQESGGGLVQAVGSLRLSCAASGTIIQLTVMGRYRQAPGKERELVASIDYGGNTNYADSVKGRFTISRDNAKNTVYLHMNSLKPEDTAVYYCAKESRPAEGDSGYDYWGQGTLVTVSS”, the “polyreactivity (PSR sort gate)” value was “low polyreactivity”.

In the case of “QVQREESGGGLVQAGGSLRLSCAASGNIFYQYAMGWYRLAPGKEREFVAAISISGTSTYADSVKGRFTISRDNAKNTVYLQMNSLKPVDTAVYWGQGTQVTVSS”, the “polyreactivity (PSR sort gate)” value was “low polyreactivity”.

With “QVQREESVGGLVQAGVSLRLSCAASGLTLAPYAMGAYRQAPGKERELVAAITFSGGSTYYADSVKGRFTISRDNAKNTVYLQMNSLKPEDTAVYYCARDTWAYKYVYPYYSWGQGTQVTVSS” the “polyreactivity (PSR sort gate)” value was “low polyreactivity”.

With “QVQRLESAGGLVQAGGSLRLSCAASGFIFSYYAMGWYRQAPGKERELVAAIDGSGGSTYYADSVKGRFTISRDNAKNTVYLQKNSLKPEDTAVYYCNTLIYIQGLGYDYGGQGTQVTVSS” the “polyreactivity (PSR sort gate)” value was “high polyreactivity”.

In the case of “QVQRVESAGGLVQAGGSLRLSCAASGFIFSWYAMGWYRQAPGKERELVAAIRWSSGRTYYADSVKGRFTISRDNAKNTVYVQMNSLKPEDTAVYYCNARSDIHNSYDYWGQGTQVTVSS”, the “polyreactivity (PSR sort gate)” value was “high polyreactivity”.

For “QVQRVESGGGIDQAGGSLRLSCAASGLTFSIYAIGWYRQAPGKERDLVDAISWSGGSTYYADSVKGRFTISRDNAKNTVYLQMISLKPEVTAVYYCAARVYRPWWRYDYWGQGTQVSVSS”, the “polyreactivity (PSR sort gate)” value was “high polyreactivity”.

With “QVQRVESGGGIVQAGGSLRLSCAASRRIFPYYALGWYRQSPGKERELVAAISQSDGSTYYADSVKGRFTISRDNAKNTVYLQMNSLKPEDTAVYYWAKRQASYTKHRKGRGDYWGQGTQVTVSS” the “polyreactivity (PSR sort gate)” value was “low polyreactivity”.

With “QVQRVESGGGIVQAGGSLRLSSAASGSIYLYHAMGWYRPERGKERQLVAAIRSGGITYYADSVKGRFTISRDNAKNTVYLQMYSLKPEDTADYYCAAKFYWKGTPKKYYYWGQGTQETVSS” the “polyreactivity (PSR sort gate)” value was “high polyreactivity”.

In the case of “QVQRVESGGGLDQAGGSLRLSCAAYGRTFGLNAMGWYRQAPGKESELVAVISFGDGGKYYADSVKGRFTISRDNAKHTVYLQMNSLKPEDTAVYYCATEYQSTSVWGGHLVINPYDYWGQGTQVTVSS”, the “polyreactivity (PSR sort gate)” value was “low polyreactivity”.

For “QVQRVESGGGLFQAGGSLRLSCAASGFIFASYTMGWYRQAPGKERELVAAISRAGSTYYADSVKGRFTITRDNAKNTVYFQMNSLKPEDTAVYYCNAVSWRTSRYDYWGQGTQVTVSS”, the “polyreactivity (PSR sort gate)” value was “high polyreactivity”.

For “QVQRVESGGGLFQAGRSLRLSCAASGFIFSTYAMGWYRQAPGKERELVAAISSGGSTYYADSVKGRFTISRDNAKNTVYLQMNSLKPEDTAVDYCAADLGAYWFSYYYWGQGTQLTVSS”, the “polyreactivity (PSR sort gate)” value was “high polyreactivity”.

With “QVQRVESGGGLVQAGASLRLSCAASGGIFYRNAMLWYRQAPGKERELVAAISRRAGSTYYADSVKGRFTISRDNAKNTVYLQMNSLKPEDTAVYYCARRVVNVGDADREYWGQGTQVTVSS” the “polyreactivity (PSR sort gate)” value was “high polyreactivity”.

With “QVQRVESGGGLVQAGASLRLSCSASGSTFYSNAMGWYRQAPGKERELVAAISGSGGRTYYADSVKGRFTISRDNEKKTVYLQMNSLKPEETAVYFCAVERTRSMGYWGQGTQVTVSS” the “polyreactivity (PSR sort gate)” value was “high polyreactivity”.

For “QVQRVESGGGLVQAGGRLRISCAASGRTFRGNDMGWYRQAPGKERELVPTITRNGGSTRYADSVKGRFTISRDNAKNTVYLQMNSLQPEDTAVYYCAAREKYTPALEVEYWGQGTQVTVSS”, the “polyreactivity (PSR sort gate)” value was “high polyreactivity”.

In the case of “QVQRVESGGGLVQAGGRLRLSFAASGFIFYAMGWYRQAPGKERELVAAITLSDGTTYYADSVKGRFTISRDNAKNTVYLQLNSLKPEDTAVYYCAAEYSVPYRGWDGYEYWGQGTQVTVSS”, the “polyreactivity (PSR sort gate)” value was “low polyreactivity”.

In the case of “QVQRVESGGGLVQAGGSLLLSCAASGRIFYRSAMGWYRQAPGKESELVASISWSGGSTYYADSVKGRFTISRDNAKNTVYLQMNSLKPEDTAVYYCAARSYRYSYRYRAFDYWGQGTQVTVSS”, the “polyreactivity (PSR sort gate)” value was “high polyreactivity”.

In the case of “QVQRVESGGGLVQAGGSLRISCAASGSITWYYSMGWYRQAPGKERELFAAISDSGGDKYYADSVKGRFTISRDNAKNTVYLQMNSLKPEDTAVYYCNARYSWYGTFGGDYWGQDTQVTVSS”, the “polyreactivity (PSR sort gate)” value was “low polyreactivity”.

For “QVQRVESGGGLVQAGGSLRLSCAASASIFASYAMGWYRQAPGKERELVASISRGGGTTYADSVKGRFTISRDNAKNTVYLQMNSLKPDDTAVYYCAARKVIRYRPYGYWGQGTQVTVSS”, the “polyreactivity (PSR sort gate)” value was “high polyreactivity”.

In the case of “QVQRVESGGGLVQAGGSLRLSCAASASTIVIKAMGCYRQAPGKARELVADLDYRGGSTNYADSVKGRFTISRDNAKNTVYLQMNSLKPEDTAVYYFNKRYVIRRRGYDYWGQGTQVTVSS”, the “polyreactivity (PSR sort gate)” value was “low polyreactivity”.

In the case of “QVQRVESGGGLVQAGGSLRLSCAASGFTIGSYAMGWYRQAPGKERELVAAITRRGGSTYYADSEKGRYTISRDNAKNTVSLQMNSLKPEDTAVYYCGKRSRDYVSSFRTSHANDYWGQGTQVTVSS”, the “polyreactivity (PSR sort gate)” value was “high polyreactivity”.

For “QVQRVESGGGLVQAGGSLRLSCAASGFTLLPNAMGWYRQAPGKETELVAAITASGGRTYYADSVKGRFTISRDNAKNTVYLQMNSLKPEDTAVYSCNADWQDDLAGYDVDYWGQGTQVTGSS”, the “polyreactivity (PSR sort gate)” value was “low polyreactivity”.
